Target: β-amyloid peptide (1-42) (UniProt P05067)
Sequence (P05067 whole entry, looked up, tested part not stated): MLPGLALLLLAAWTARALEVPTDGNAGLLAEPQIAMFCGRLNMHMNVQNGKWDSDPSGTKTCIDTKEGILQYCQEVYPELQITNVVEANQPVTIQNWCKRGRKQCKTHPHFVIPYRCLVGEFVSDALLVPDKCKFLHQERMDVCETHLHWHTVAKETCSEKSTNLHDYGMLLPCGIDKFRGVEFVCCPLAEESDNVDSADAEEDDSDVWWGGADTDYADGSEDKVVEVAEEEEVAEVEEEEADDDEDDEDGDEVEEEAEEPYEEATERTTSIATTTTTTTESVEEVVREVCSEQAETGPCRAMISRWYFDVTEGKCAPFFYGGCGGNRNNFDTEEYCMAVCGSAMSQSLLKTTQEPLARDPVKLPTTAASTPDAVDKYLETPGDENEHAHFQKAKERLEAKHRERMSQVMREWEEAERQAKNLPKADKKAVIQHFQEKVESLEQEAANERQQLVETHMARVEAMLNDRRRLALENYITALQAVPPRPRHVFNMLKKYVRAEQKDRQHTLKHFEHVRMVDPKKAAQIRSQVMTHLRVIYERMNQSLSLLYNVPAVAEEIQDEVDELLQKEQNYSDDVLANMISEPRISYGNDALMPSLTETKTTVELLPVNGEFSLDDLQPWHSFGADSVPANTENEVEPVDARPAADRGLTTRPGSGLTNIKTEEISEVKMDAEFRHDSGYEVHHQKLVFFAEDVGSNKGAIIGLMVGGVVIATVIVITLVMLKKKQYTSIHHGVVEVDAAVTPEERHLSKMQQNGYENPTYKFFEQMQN

Work on yeast NEP (yNEP) yielded an Abeta HPLC, per hr. (sample yNEP) of 0.46 per hr, an Abeta HPLC, rate (sample yNEP) (million sq unt/min) of 0.0137 and an Abeta HPLC, units/µL (sample yNEP) of 0.0274 units/µL. It also gave an Abeta HPLC, units/µg (sample yNEP) of 0.008 units/µg.

From patent US20210395716
